According to publication PMC12397115 (European Journal of Nuclear Medicine and Molecular Imaging, 2025):
Where “and” joins values, the source holds several entries; their conditions need not be identical. Equal values may be shown once. Read-outs that look alike come from different tables or passages of the source.

How the values were obtained:
[1] = format: in vivo, adolescent patients; conditions: for Kidneys projected CAD, median (range) / Kidneys projected CAD, mean (SD): coefficient × 4 × 7.4
[2] = Blood pharmacokinetics after one administration, population approach; format: in vivo, adolescent and adult patients
[3] = Laboratory abnormalities during Cycle 1, safety set; parameters: species or system adolescent patients; conditions: in vivo
[4] = in vivo
[5] = Observed, adult GEP-NET N=47, historical data; ref NETTER-1 and Erasmus studies; cited from earlier work
[6] = ref NETTER-1, cited from earlier work
[7] = Observed, adolescent GEP-NET and PPGL N=11
[8] = adolescents, 11 patients, population approach

C[C@@H](O)[C@H](NC(=O)[C@@H]1CSSC[C@H](NC(=O)[C@@H](Cc2ccccc2)NC(=O)CN2CCN(CC(=O)O)CCN(CC(=O)O)CCN(CC(=O)O)CC2)C(=O)N[C@@H](Cc2ccc(O)cc2)C(=O)N[C@H](Cc2c[nH]c3ccccc23)C(=O)N[C@@H](CCCCN)C(=O)N[C@@H]([C@@H](C)O)C(=O)N1)C(=O)O [177Lu-DOTATATE, [^177Lu]Lu-DOTA-TATE, metal not drawn]
Kidneys absorbed dose coefficient, mean (SD) ([1]; All patients): 0.78 ± 0.28 Gy/GBq and 0.78 (0.28) Gy/GBq | Kidneys absorbed dose coefficient, median (range) ([1]; All patients): 0.71 (0.46–1.3) Gy/GBq | Red marrow (blood) absorbed dose coefficient, mean (SD) ([1]; All patients): 0.026 ± 0.0050 Gy/GBq and 0.026 (0.0050) Gy/GBq | Red marrow (blood) absorbed dose coefficient, median (range) ([1]; All patients): 0.026 (0.019–0.035) Gy/GBq | Red marrow (blood) projected CAD, mean (SD) ([1]; All patients): 0.78 ± 0.15 Gy and 0.78 (0.15) Gy | Red marrow (blood) projected CAD, median (range) ([1]; All patients): 0.76 (0.55–1.0) Gy | Spleen absorbed dose coefficient, mean (SD) ([1]; All patients): 0.74 (0.27) Gy/GBq | Spleen absorbed dose coefficient, median (range) ([1]; All patients): 0.72 (0.28–1.1) Gy/GBq | Spleen projected CAD, mean (SD) ([1]; All patients): 22 (8.1) Gy | Spleen projected CAD, median (range) ([1]; All patients): 21 (8.3–34) Gy | Total body absorbed dose coefficient, mean (SD) ([1]; All patients): 0.040 (0.0095) Gy/GBq | Total body projected CAD, mean (SD) ([1]; All patients): 1.2 (0.28) Gy | Total body projected CAD, median (range) ([1]; All patients): 1.2 (0.66–1.6) Gy | Urinary bladder wall absorbed dose coefficient, mean (SD) ([1]; All patients): 0.55 (0.089) Gy/GBq | Urinary bladder wall absorbed dose coefficient, median (range) ([1]; All patients): 0.52 (0.47–0.68) Gy/GBq | Urinary bladder wall projected CAD, mean (SD) ([1]; All patients): 16 (2.6) Gy | Urinary bladder wall projected CAD, median (range) ([1]; All patients): 15 (14–20) Gy | Tumour absorbed dose coefficient, mean (SD) ([1]; All patients, 18 lesions): 2.0 (1.2) Gy/GBq | Tumour absorbed dose coefficient, median (range) ([1]; All patients, 18 lesions): 1.9 (0.17–5.1) Gy/GBq | Tumour projected CAD, mean (SD) ([1]; All patients, 18 lesions): 58 (37) Gy | Tumour projected CAD, median (range) ([1]; All patients, 18 lesions): 55 (4.9–150) Gy | Pituitary absorbed dose coefficient, mean (SD) ([1]; All patients, n=9): 1.1 (0.43) Gy/GBq | Pituitary absorbed dose coefficient, median (range) ([1]; All patients, n=9): 1.0 (0.61–1.9) Gy/GBq | Pituitary projected CAD, mean (SD) ([1]; All patients, n=9): 33 ± 13 Gy and 33 (13) Gy | Pituitary projected CAD, median (range) ([1]; All patients, n=9): 30 (18–56) Gy | Kidneys projected CAD, median (range) ([1]; All patients): 21 (14–40) Gy | Kidneys absorbed dose coefficient, mean (SD) ([1]; GEP-NET): 0.71 (0.25) Gy/GBq | Kidneys absorbed dose coefficient, median (range) ([1]; GEP-NET): 0.71 (0.46–0.96) Gy/GBq | Red marrow (blood) absorbed dose coefficient, mean (SD) ([1]; GEP-NET): 0.024 (0.0035) Gy/GBq | Red marrow (blood) absorbed dose coefficient, median (range) ([1]; GEP-NET): 0.024 (0.019–0.027) Gy/GBq | Red marrow (blood) projected CAD, mean (SD) ([1]; GEP-NET): 0.70 (0.10) Gy | Red marrow (blood) projected CAD, median (range) ([1]; GEP-NET): 0.72 (0.55–0.79) Gy | Spleen absorbed dose coefficient, mean (SD) ([1]; GEP-NET): 0.63 (0.39) Gy/GBq | Spleen absorbed dose coefficient, median (range) ([1]; GEP-NET): 0.55 (0.28–1.1) Gy/GBq | Spleen projected CAD, mean (SD) ([1]; GEP-NET): 19 (12) Gy | Spleen projected CAD, median (range) ([1]; GEP-NET): 16 (8.3–34) Gy | Total body absorbed dose coefficient, mean (SD) ([1]; GEP-NET): 0.040 (0.013) Gy/GBq | Total body absorbed dose coefficient, median (range) ([1]; GEP-NET): 0.040 (0.022–0.055) Gy/GBq | Total body projected CAD, mean (SD) ([1]; GEP-NET): 1.2 (0.40) Gy | Total body projected CAD, median (range) ([1]; GEP-NET): 1.2 (0.66–1.6) Gy | Urinary bladder wall absorbed dose coefficient, mean (SD) ([1]; GEP-NET): 0.50 (0.034) Gy/GBq | Urinary bladder wall absorbed dose coefficient, median (range) ([1]; GEP-NET): 0.49 (0.47–0.54) Gy/GBq | Urinary bladder wall projected CAD, mean (SD) ([1]; GEP-NET): 15 (1.0) Gy | Urinary bladder wall projected CAD, median (range) ([1]; GEP-NET): 14 (14–16) Gy | Tumour absorbed dose coefficient, mean (SD) ([1]; GEP-NET, 8 lesions): 2.6 (1.2) Gy/GBq | Tumour absorbed dose coefficient, median (range) ([1]; GEP-NET, 8 lesions): 2.3 (1.4–5.1) Gy/GBq | Tumour projected CAD, mean (SD) ([1]; GEP-NET, 8 lesions): 76 ± 35 Gy and 76 (35) Gy | Tumour projected CAD, median (range) ([1]; GEP-NET, 8 lesions): 69 (41–150) Gy | Pituitary absorbed dose coefficient, mean (SD) ([1]; GEP-NET, n=3): 1.2 (0.43) Gy/GBq | Pituitary absorbed dose coefficient, median (range) ([1]; GEP-NET, n=3): 1.1 (0.93–1.7) Gy/GBq | Pituitary projected CAD, mean (SD) ([1]; GEP-NET, n=3): 37 (13) Gy | Pituitary projected CAD, median (range) ([1]; GEP-NET, n=3): 32 (28–51) Gy | Kidneys projected CAD, mean (SD) ([1]; GEP-NET): 21 (7.3) Gy | Kidneys projected CAD, median (range) ([1]; GEP-NET): 21 (14–28) Gy | Kidneys absorbed dose coefficient, mean (SD) ([1]; PPGL): 0.82 (0.32) Gy/GBq | Kidneys absorbed dose coefficient, median (range) ([1]; PPGL): 0.71 (0.55–1.3) Gy/GBq | Pituitary absorbed dose coefficient, mean (SD) ([1]; PPGL): 1.0 (0.45) Gy/GBq | Pituitary absorbed dose coefficient, median (range) ([1]; PPGL): 0.93 (0.61–1.9) Gy/GBq | Pituitary projected CAD, mean (SD) ([1]; PPGL): 31 (13) Gy | Pituitary projected CAD, median (range) ([1]; PPGL): 28 (18–56) Gy | Red marrow (blood) absorbed dose coefficient, mean (SD) ([1]; PPGL): 0.028 (0.0052) Gy/GBq | Red marrow (blood) absorbed dose coefficient, median (range) ([1]; PPGL): 0.029 (0.022–0.035) Gy/GBq | Red marrow (blood) projected CAD, mean (SD) ([1]; PPGL): 0.83 (0.16) Gy | Red marrow (blood) projected CAD, median (range) ([1]; PPGL): 0.87 (0.64–1.0) Gy | Spleen absorbed dose coefficient, mean (SD) ([1]; PPGL): 0.82 (0.17) Gy/GBq | Spleen absorbed dose coefficient, median (range) ([1]; PPGL): 0.81 (0.64–1.1) Gy/GBq | Spleen projected CAD, mean (SD) ([1]; PPGL): 24 (5.0) Gy | Spleen projected CAD, median (range) ([1]; PPGL): 24 (19–31) Gy | Total body absorbed dose coefficient, mean (SD) ([1]; PPGL): 0.041 (0.0073) Gy/GBq | Total body projected CAD, mean (SD) ([1]; PPGL): 1.2 (0.21) Gy | Total body projected CAD, median (range) ([1]; PPGL): 1.2 (0.97–1.5) Gy | Urinary bladder wall absorbed dose coefficient, mean (SD) ([1]; PPGL): 0.59 (0.096) Gy/GBq | Urinary bladder wall absorbed dose coefficient, median (range) ([1]; PPGL): 0.63 (0.47–0.68) Gy/GBq | Urinary bladder wall projected CAD, mean (SD) ([1]; PPGL): 17 (2.8) Gy | Urinary bladder wall projected CAD, median (range) ([1]; PPGL): 19 (14–20) Gy | Tumour absorbed dose coefficient, mean (SD) ([1]; PPGL, 10 lesions): 1.5 (1.1) Gy/GBq | Tumour absorbed dose coefficient, median (range) ([1]; PPGL, 10 lesions): 1.2 (0.17–3.3) Gy/GBq | Tumour projected CAD, mean (SD) ([1]; PPGL, 10 lesions): 44 ± 34 Gy and 44 (34) Gy | Tumour projected CAD, median (range) ([1]; PPGL, 10 lesions): 36 (4.9–98) Gy | Kidneys projected CAD, mean (SD) ([1]; PPGL): 24 (9.3) Gy | Kidneys projected CAD, median (range) ([1]; PPGL): 21 (16–40) Gy | AUClast, geometric mean (geometric CV%) [2, 7]: 41.00 (24.15) ng.h/mL | Cmax, geometric mean (geometric CV%) [2, 7]: 11.17 (33.04) ng/mL | Tmax, median (range) [2, 7]: 0.58 (0.50–0.77) hours | T½β, population value ([2]; adolescents): 36.9 h | AUCinf, overall mean ± SD [2, 8]: 35.84 ± 4.49 ng·h/mL | Cmax, overall mean ± SD [2, 8]: 10.33 ± 0.54 ng/mL | clearance, overall mean ± SD [2, 8]: 5.98 ± 0.69 L/h | Grade ≥ 3 biochemistry abnormalities [3]: No | deaths by data cutoff [4]: no deaths | patients with AEs that resulted in infusion interruptions [4]: 18% | treatment-related nephrotoxicity [4]: no treatment-related nephrotoxicity was observed | Bone marrow Probability (%) >2 Gy [5]: 6% | Kidneys Probability (%) >29 Gy [5]: 13% | AUClast, geometric mean (geometric CV%) ([6]; Observed, adult GEP-NET N=20): 30.08 (50.38) ng.h/mL | Cmax, geometric mean (geometric CV%) ([6]; Observed, adult GEP-NET N=20): 8.98 (73.28) ng/mL | Tmax, median (range) ([6]; Observed, adult GEP-NET N=20): 0.47 (0.25–1.17) hours | T½β ([6]; adults with GEP-NET): 59.1 h
